# Source: patent US20200102387A1 (CELGENE, published 2020)
# B1: SIRPAB-11-K322A (antibody, human IgG1, kappa)
# light: DIQMTQSPSSVSASVGDRVTITCRASQGISSWLAWYQQKPGKAPKLLIYAASNLQSGVPSRFSGSGSGTDFTLTISSLQPEDFATYYCQQGASFPITFGGGTKVEIKRTVAAPSVFIFPPSDEQLKSGTASVVCLLNNFYPREAKVQWKVDNALQSGNSQESVTEQDSKDSTYSLSSTLTLSKADYEKHKVYACEVTHQGLSSPVTKSFNRGEC
# heavy: not shown
# notes: human IgG1 with K322A (EU numbering); also called SIRPAB-11-IgG1-K322A; SIRPAB-11-K322A-AlexaFluor647
# Experiments:
# [1] = molecular target: T1, human SIRPα on cells (human, UniProt P78324 31-504); assay: cell-based or functional assay
# [2] = molecular target: T1, human SIRPα on cells; assay: cell-based or functional assay; remark: listed apart in the source
# [3] = molecular target: T2, mouse SIRPα on cells (mouse, UniProt P97797 32-513); assay: flow cytometry on Mouse SIRPα-CHO-K1 cells
# T2 construct: whole, on cells; also called mouse SIRPα-CHO-K1; Ms SIRPα-CHO-K1
# T2 sequence (looked up): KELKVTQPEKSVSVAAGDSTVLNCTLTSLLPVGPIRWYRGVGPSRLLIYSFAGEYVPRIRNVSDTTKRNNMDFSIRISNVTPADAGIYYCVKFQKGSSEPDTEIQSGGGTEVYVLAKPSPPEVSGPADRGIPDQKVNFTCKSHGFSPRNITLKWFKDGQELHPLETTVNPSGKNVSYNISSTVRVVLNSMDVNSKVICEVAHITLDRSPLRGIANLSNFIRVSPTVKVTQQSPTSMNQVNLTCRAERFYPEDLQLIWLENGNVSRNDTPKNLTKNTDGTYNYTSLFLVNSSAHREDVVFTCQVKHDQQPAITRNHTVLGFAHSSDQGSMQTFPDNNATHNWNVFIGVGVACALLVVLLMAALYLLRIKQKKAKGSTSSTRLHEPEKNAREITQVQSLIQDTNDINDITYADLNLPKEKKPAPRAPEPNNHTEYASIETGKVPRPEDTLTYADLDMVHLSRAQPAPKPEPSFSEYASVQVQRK
# [4] = molecular target: T3, cynomolgus SIRPα on cells (cynomolgus, UniProt P78324 31-373 (human entry)); assay: flow cytometry, cyno SIRPα-CHO cells, anti-human IgG-AF647 detection
# T3 construct: also called cyno SIRPα-CHO; Cyno SIRPα-CHO-K1; not shown: Transmembrane and cytoplasmic region of cynomolgus SIRPα
# T3 chain: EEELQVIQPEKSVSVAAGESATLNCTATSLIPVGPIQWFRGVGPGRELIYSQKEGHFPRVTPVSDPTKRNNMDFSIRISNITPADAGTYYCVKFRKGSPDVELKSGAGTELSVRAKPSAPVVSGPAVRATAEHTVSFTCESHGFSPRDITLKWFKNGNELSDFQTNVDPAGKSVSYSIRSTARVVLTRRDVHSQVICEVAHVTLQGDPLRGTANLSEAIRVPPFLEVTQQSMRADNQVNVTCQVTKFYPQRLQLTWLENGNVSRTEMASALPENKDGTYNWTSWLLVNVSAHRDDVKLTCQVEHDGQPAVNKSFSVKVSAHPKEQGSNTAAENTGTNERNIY
# [5] = molecular target: T1, human SIRPα on cells; assay: flow cytometry, human SIRPα-CHO cells, anti-human IgG-AF647 detection
# [6] = molecular target: T4, recombinant SIRPα protein (Novoprotein, catalog number C385) (human, UniProt P78324 31-370); assay: SPR Biacore T200 competition in solution, SIRPα 20 nM, competitor immobilized CD47-ECD
# T4 construct: also called human recombinant SIRPα protein; SIRPα antigen
# [7] = molecular target: T5, extracellular domain of SIRPα v1-DLN (e.g. SIRPα1) (human, UniProt P78324 31-373); assay: SPR Biacore T200, antibody on Protein A chip, 1:1 Langmuir fit; comparative Biacore study of Table 30, a separate experiment from Table 15
# T5 construct: also called hSIRPα - ECD (v1)
binder,measurement,setting,value
B1,mean EC50 (n=2 donors) of percent phagocytic macrophages; OCI-LY3; with 0.1 nM rituximab,[1],110 pM
same,EC50 of percent phagocytic macrophages; FaDu; donor 358; 0.2 nM cetuximab,[2],75 pM
same,EC50 of percent phagocytic macrophages; FaDu; donor 358; 1 nM cetuximab,[2],49 pM
same,EC50 of percent phagocytic macrophages; GP2d; donor 338; 0.2 nM cetuximab,[2],657 pM
same,EC50 of percent phagocytic macrophages; GP2d; donor 338; 1 nM cetuximab,[2],495 pM
same,EC50 of percent phagocytic macrophages; GP2d; donor 358; 0.2 nM cetuximab,[2],16200 pM
same,EC50 of percent phagocytic macrophages; GP2d; donor 358; 1 nM cetuximab,[2],247 pM
same,EC50 of percent phagocytic macrophages; GP2d; mean; 0.2 nM cetuximab,[2],8430 pM
same,EC50 of percent phagocytic macrophages; GP2d; mean; 1 nM cetuximab,[2],371 pM
same,EC50 of percent phagocytic macrophages; GP5d; donor 338; 0.2 nM cetuximab,[2],543 pM
same,EC50 of percent phagocytic macrophages; GP5d; donor 338; 1 nM cetuximab,[2],714 pM
same,EC50 of percent phagocytic macrophages; GP5d; donor 358; 0.2 nM cetuximab,[2],886 pM
same,EC50 of percent phagocytic macrophages; GP5d; donor 358; 1 nM cetuximab,[2],162 pM
same,EC50 of percent phagocytic macrophages; GP5d; mean; 0.2 nM cetuximab,[2],715 pM
same,EC50 of percent phagocytic macrophages; GP5d; mean; 1 nM cetuximab,[2],438 pM
same,EC50 of percent phagocytic macrophages; SW480; donor 338; 0.2 nM cetuximab,[2],200 pM
same,EC50 of percent phagocytic macrophages; SW480; donor 338; 1 nM cetuximab,[2],461 pM
same,EC50 of percent phagocytic macrophages; SW480; donor 358; 0.2 nM cetuximab,[2],2060 pM
same,EC50 of percent phagocytic macrophages; SW480; donor 358; 1 nM cetuximab,[2],102 pM
same,EC50 of percent phagocytic macrophages; SW480; mean; 0.2 nM cetuximab,[2],1130 pM
same,EC50 of percent phagocytic macrophages; SW480; mean; 1 nM cetuximab,[2],282 pM
same,binding result,[3],no binding (tested: 100 nM (Log nM 2))
same,EC50,[4],1900 pM
same,EC50,[5],2060 pM
same,IC50,[6],12600 pM
same,Kd,[7],92.3 pM
